Holding throughout (conditions): both partners purified
Assay [1] addresses T1, unlabeled recombinant wild-type human histone H1.0 (human, UniProt P07305 1-194).
T1 construct: linker histone H1.0, human, H1F0 gene, UniProt P07305, wild type; also called linker histone H1.0; unlabeled H1; source: bought: New England Biolabs (cat. # M2501S)
Put plainly: single-molecule FRET of freely diffusing molecules; 50 pM donor/acceptor-labeled ProTα titrated with unlabeled H1; fraction bound from transfer efficiency histograms; 10 mM TBS, 0.1 mM EDTA, 200 mM ionic strength (KCl), 140 mM β-mercaptoethanol, 0.01% Tween 20.

The target in assay [2] is T1, unlabeled recombinant wild-type human …. Put plainly: single-molecule FRET of freely diffusing molecules, competition titration; 50 pM labeled ProTα and constant unlabeled H1 (10 nM; also 1 µM and 20 µM in Fig. 2), unlabeled ProTα varied; TBS, 200 mM ionic strength; coupled binding equilibria fit.
Assay [3] has the same target. The experiment in a line: single-molecule FRET of surface-immobilized molecules; biotinylated labeled ProTα immobilised on neutravidin/PEG surface, nanomolar unlabeled H1 in solution; degassed TBS in D2O, 200 mM ionic strength, oxygen scavenger; two-state hidden Markov model of photon time traces.

Changes are numbered by the printed parent chain. Numbers in names are those of the source.

Consider three molecules from article PMC7661507, “Polyelectrolyte interactions enable rapid association and dissociation in high-affinity disordered protein complexes” (Nature Communications, 2020).

By Kd is commonly meant the free concentration of one partner at which half of the binding sites on the other are occupied at equilibrium, for simple one-to-one binding. The koff is the rate constant with which the complex falls apart. What is called kon is the second-order rate constant of association.

B1: ProTα E56C/D110C labeled with Alexa Fluor 488/594 (natural protein)
chain: SDAAVDTSSEITTKDLKEKKEVVEEAENGRDAPANGNAENEENGEQEADNEVDEECEEGGEEEEEEEEGDGEEEDGDEDEEAESATGKRAAEDDEDDDVDTKKQKTDEDC
modifications: Alexa Fluor 488 maleimide and Alexa Fluor 594 maleimide on the cysteines at positions 56 and 110
Turning to B1, the Kd in assay [1] turned out to be 0.73 nM.

B2: unlabeled ProTα (natural protein, human, UniProt P06454 1-111, looked up)
chain: MSDAAVDTSSEITTKDLKEKKEVVEEAENGRDAPANGNAENEENGEQEADNEVDEEEEEGGEEEEEEEEGDGEEEDGDEDEEAESATGKRAAEDDEDDDVDTKKQKTDEDD
notes: prothymosin α (ProTα), human, PTMA gene, UniProt P06454; The main text calls it only 'unlabeled ProTα'; also called prothymosin α; source: E. coli C41, purified (IMAC, tag cleavage, RP-HPLC)
With B2, in assay [2], the Kd turned out to be 1.1 nM.

B3: Avi-Tag-ProTα E56C/D110C labeled with Cy3B/LD650 (natural protein)
chain: B2 chain with E57C, D111C
modifications: biotin on Lys12 of the Avi-tag; Cy3B maleimide and LD650 maleimide on the cysteines at positions 56 and 110
Turning to B3, in assay [3], the Kd is 1.2 ± 0.1 nM, the off-rate (koff) was 1.7 ± 0.1 s⁻¹ and the association rate constant (kon) came to 1.45e+09 M⁻¹ s⁻¹.
